Laboratory results taken from patent US20260234268A1, “ANTI-ASGR1 MONOCLONAL ANTIBODY AND USE THEREOF” (CHOLESGEN (SHANGHAI) CO., LTD., priority 2022, published 2026).

Experiments:
[1] = test system: mice fed a high-fat, high-cholesterol, and cholate (HF/HC/BS) diet; experiment: 4B9 in mice fed HF/HC/BS diet, 14 days (Example 1, FIG. 2); type: in vivo, mouse
Text: (§1) All data are presented as mean±SEM.
We further investigated whether 4B9 was able to completely simulate the improvement of Asgr1 deletion on high-fat, high-cholesterol conditions.

[2] = test system: mice fed a high-fat, high-cholesterol, and cholate (HF/HC/BS) diet; experiment: 4B9 and Ezetimibe, alone or combined, in mice fed HF/HC/BS diet (Example 3, FIG. 4); type: in vivo, mouse
Procedure: as §1
We then devised an experiment as in FIG. 4 to verify the hypothesis. Mice were randomly divided into 8 groups according to the genotype (n=6) and fed an HF/HC/BS diet. They were intragastrically administered with EZ at 10 mg/kg per day and were intraperitoneally injected with 4B9 at 10 mg/kg every other day. The mice were sacrificed on day 7 to collect their tissues.

[3] = test system: mice fed a high-fat, high-cholesterol, and cholate (HF/HC/BS) diet; experiment: 4B9 and atorvastatin, alone or combined, in mice fed HF/HC/BS diet, 14 days (Example 2, FIG. 3)
Procedure: 8-week-old Asgr1 knockout mice and wild-type littermates are randomly divided into 8 groups as shown in the figure according to the genotype, with 6 mice per group. The mice are given free access to water and fed a high-fat, high-cholesterol, and cholate (HF/HC/BS) diet (60% fat, 1.25% cholesterol, and 0.5% cholate). […] After 14 days, the mice are fasted for 4 hours before being sacrificed. All data are presented as mean±SEM. Statistical significance is calculated using an unpaired two-tailed Student's t-test. *p<0.05, **p<0.01, ***p<0.001. (a) Western blotting analysis of liver samples; (b) total cholesterol in serum; (c) triglyceride in serum; (d) total cholesterol in liver; (e) triglyceride in liver; (f) concentration of cholesterol in bile; (g) total cholesterol in bile; (h) concentration of bile acid in bile; (i) total bile acid in bile; (j) total cholesterol in feces; (k) body weight; (l) daily food intake; (m) ratio of liver weight to body weight; (n) blood glucose; (o) alanine transaminase in serum; (p) aspartate transaminase in serum; (q-r) real-time quantitative PCR analysis of genes related to cholesterol efflux, cholesterol synthesis and absorption, lipid synthesis, and bile acid synthesis in the liver of mice, and genes in other pathways, with cyclophilin as an internal reference; (s) hematoxylin-eosin staining of liver sections; (t) oil red O staining of liver sections.
In the experiment, wild-type littermates were used as a control. All mice were housed in an SPF (specific pathogen-free) facility and kept on a 12-hour light/12-hour dark cycle. 8-week-old male or female mice were fed a high-fat, high-cholesterol, and cholate diet (Research Diets, D12109C) as required by the experimental protocols. For treatments involving antibody neutralization or the combination of antibodies with statins or Ezetimibe, the mice were intraperitoneally injected with antibodies or intragastrically administered with drugs at specified doses. All animals were fasted for 4 hours before being sacrificed.
The collected cells or tissues were lysed in RIPA lysis buffer supplemented with protease and phosphatase inhibitors. The RIPA lysis buffer contained 50 mM Tris-HCl (pH=8.0), 150 mM NaCl, 2 mM MgCl2, 1.5% NP-40, 0.1% SDS, and 0.5% sodium deoxycholate. The protease inhibitor contained 10 μM MG-132, 10 μg/mL leupeptin, 1 mM PMSF, 5 μg/mL pepstatin, 25 μg/mL ALLN, and 1 mM DTT. The protein concentration of the lysate was determined using a BCA method (Thermo Fisher Scientific). The protein samples were incubated with membrane solubilization buffer (62.5 mM Tris-HCl (pH=6.8), 15% SDS, 8 M urea, 10% glycerol, and 100 mM DTT) and 4× loading buffer (150 mM Tris-HCl (pH=6.8), 12% SDS, 30% glycerol, 6% β-mercaptoethanol, and 0.02% bromophenol blue) at 37° C. for 30 minutes. The protein samples were separated by SDS-PAGE and transferred to a PVDF membrane, which was blocked in TBST, i.e., TBS containing 0.075% Tween 20 and 5% skim milk (3% BSA for phosphorylation experiments) for 1 hour. The membrane was incubated overnight at 4° C. with a specified primary antibody, and washed three times with TBST. Finally, Pierce ECL Plus Western blotting substrate (Thermo Fisher Scientific) was used for detection.
Blood was collected from the orbital sinus to obtain serum for the measurement of total cholesterol and triglyceride.

LXRα [4] = experiment: Western blotting of LXRα in primary hepatocytes incubated with monoclonal neutralizing antibodies; type: cell-based, mouse; conditions: primary hepatocytes of wild-type C57B/L6 mice, various concentrations, 72 hours, Western blotting (FIG. 1d)
LXRα [5] = experiment: Western blotting of LXRα in Huh7 cells incubated with purified neutralizing antibody; type: cell-based, human; conditions: 72 hours, Western blotting (FIG. 1c)
Text: (§2) (a) Steps for preparing ASGR1 monoclonal neutralizing antibody. Purified ASGR1 protein is used as the antigen to immunize rabbits, and after the first round of screening, four B-cell monoclonal antibodies are selected as candidates. The coding region of the variable region of the antibody is then sequenced and cloned into an antibody expression vector, which is transfected into mammalian cells. The efficiency of transfection is confirmed by Western blotting and real-time quantitative PCR. Finally, the rabbit-derived Fc fragment is replaced with a murine Fc fragment. The neutralizing antibody 4B9 is selected for large-scale production and used in subsequent experiments. (b) ASGR1 protein purified from HEK293T cells is stained with Coomassie Brilliant Blue. (c) Huh7 cells are incubated with purified neutralizing antibody for 72 hours, followed by Western blotting analysis of the protein expression of LXRα. (d) Primary hepatocytes are isolated from 8-week-old wild-type C57B/L6 mice. […] The primary hepatocytes are incubated with ASGR1 neutralizing antibody 4B9 for 72 hours, after which cells are collected, total RNA is extracted from the cells, and target genes of LXR are analyzed by real-time quantitative PCR. […]

target genes of LXR = experiment: Real-time quantitative PCR of target genes of LXR in primary hepatocytes incubated with 4B9; type: cell-based; conditions: primary mouse hepatocytes, 72 hours, real-time quantitative PCR (FIG. 1e)
Text: as §2

[6] = wild-type mice, HF/HC/BS diet, 4B9 10 mg/kg/day i.p. every other day, 14 days, Western blotting (FIG. 2a)
[7] = sacrificed on day 7, 4B9 10 mg/kg i.p. every other day, EZ 10 mg/kg per day intragastric (FIGS. 4a, 4p-q)

B1: 4B9: ASGR1 monoclonal neutralizing antibody from immunized rabbits, rabbit Fc replaced with mouse Fc; VL SEQ ID NO: 28, VH SEQ ID NO: 29 (antibody, listed as Oryctolagus cuniculus, V domains shown)
VH: QSLEESGGDLVKPGATMTLTCKASGFSFSGSLWICWVRQAPGKGLEWIACIYVGSSGSTYYASWAKGRFTISTTSSTTVTLQMTSLTAADTATYFCARRYTDAYGGYPAGSFVFKLWGPGTLVTVSS
VL: QVLTQTPSPVSAAVGGTVTINCQASQSVYNNKNLGWYQQKPGQPPKLLIYYASDLASGVPSRFKGSGSGKQFTLTISDVQCDDAATYYCQGEFSCSSADCCAFGGGTEVVVK
modifications: mouse Fc
B1 was tested, and the “all parameters in Asgr1 knockout mice with or without injection of 4B9” value ([1]; Asgr1 knockout mice, HF/HC/BS diet, 4B9 10 mg/kg/day i.p. every other day, 14 days (FIG. 2a)) was “remained unchanged”, the “real-time quantitative PCR of liver genes (cholesterol efflux, cholesterol synthesis and absorption, lipid synthesis, bile acid metabolism)” value ([1]; HF/HC/BS diet, 4B9 10 mg/kg/day i.p. every other day, 14 days (FIG. 2b)) was “consistent with protein-level changes” and the body weight ([1]; HF/HC/BS diet, 4B9 10 mg/kg/day i.p. every other day, 14 days (FIG. 2n)) was “no significant changes”. The daily food intake ([1]; HF/HC/BS diet, 4B9 10 mg/kg/day i.p. every other day, 14 days (FIG. 2o)) was “no significant changes”, the “ratio of liver weight to body weight” value ([1]; HF/HC/BS diet, 4B9 10 mg/kg/day i.p. every other day, 14 days (FIG. 2p)) was “no significant changes” and the blood glucose ([1]; HF/HC/BS diet, 4B9 10 mg/kg/day i.p. every other day, 14 days (FIG. 2q)) was “no significant changes”. The “ALT (alanine transaminase in serum)” value ([1]; HF/HC/BS diet, 4B9 10 mg/kg/day i.p. every other day, 14 days (FIG. 2r)) was “no significant changes”, the “AST (aspartate transaminase in serum)” value ([1]; HF/HC/BS diet, 4B9 10 mg/kg/day i.p. every other day, 14 days (FIG. 2s)) was “no significant changes” and the “total cholesterol in serum” value ([1]; HF/HC/BS diet, 4B9 10 mg/kg/day i.p. every other day, 14 days, vs control group (FIG. 2c)) was “significant decrease”. The “total cholesterol in liver” value ([1]; HF/HC/BS diet, 4B9 10 mg/kg/day i.p. every other day, 14 days, vs control group (FIG. 2e)) was “significant decrease”, the triglyceride in liver ([1]; HF/HC/BS diet, 4B9 10 mg/kg/day i.p. every other day, 14 days, vs control group (FIG. 2f)) was “significant decrease” and the “total amount of total cholesterol in bile” value ([1]; HF/HC/BS diet, 4B9 10 mg/kg/day i.p. every other day, 14 days, vs control group (FIG. 2i)) was “significant increase”. For the same molecule, the “total cholesterol in feces” value ([1]; HF/HC/BS diet, 4B9 10 mg/kg/day i.p. every other day, 14 days, vs control group (FIG. 2k)) was “significant increase”, the “concentration of total bile acid in bile” value ([1]; HF/HC/BS diet, 4B9 10 mg/kg/day i.p. every other day, 14 days, vs control group (FIG. 2l)) was “significant increase” and the “total amount of total bile acid in bile” value ([1]; HF/HC/BS diet, 4B9 10 mg/kg/day i.p. every other day, 14 days, vs control group (FIG. 2m)) was “significant increase”. For the same molecule, the “concentration of total cholesterol in bile” value ([1]; HF/HC/BS diet, 4B9 10 mg/kg/day i.p. every other day, 14 days, vs control group (FIG. 2h)) was “significant increase”, the triglyceride in serum ([1]; HF/HC/BS diet, 4B9 10 mg/kg/day i.p. every other day, 14 days, vs control group (FIG. 2d)) was “significant decrease” and the volume of gallbladder ([1]; HF/HC/BS diet, 4B9 10 mg/kg/day i.p. every other day, 14 days, vs control group (FIGS. 2g, j)) was “significant increase”. The overall lipid-lowering effect ([1]; summary of Example 1, high-fat, high-cholesterol diet) was “very significant lipid-lowering effect”, the BARD1 in liver [1, 6] was “significantly reduced” and the LDLR in liver [1, 6] was “remained unchanged”. The “cholesterol efflux-related proteins (LXR, ABCG8, ABCA1, CYP7A1) in liver” value [1, 6] was “significantly increased”, the “lipid synthesis-related proteins SREBP1 and FASN in liver” value [1, 6] was “significantly reduced” and the p-ACC in liver [1, 6] was “significantly up-regulated”. For the same molecule, the body weight ([2]; 8 groups of mice, sacrificed on day 7, 4B9 10 mg/kg i.p. every other day, EZ 10 mg/kg per day intragastric (FIG. 4j)) was “No significant differences”, the daily food intake ([2]; 8 groups of mice, sacrificed on day 7, 4B9 10 mg/kg i.p. every other day, EZ 10 mg/kg per day intragastric (FIG. 4k)) was “No significant differences” and the “ratio of liver weight to body weight” value ([2]; 8 groups of mice, sacrificed on day 7, 4B9 10 mg/kg i.p. every other day, EZ 10 mg/kg per day intragastric (FIG. 4l)) was “No significant differences”. For the same molecule, the blood glucose ([2]; 8 groups of mice, sacrificed on day 7, 4B9 10 mg/kg i.p. every other day, EZ 10 mg/kg per day intragastric (FIG. 4m)) was “No significant differences”, the ALT ([2]; 8 groups of mice, sacrificed on day 7, 4B9 10 mg/kg i.p. every other day, EZ 10 mg/kg per day intragastric (FIG. 4n)) was “No significant differences” and the AST ([2]; 8 groups of mice, sacrificed on day 7, 4B9 10 mg/kg i.p. every other day, EZ 10 mg/kg per day intragastric (FIG. 4o)) was “No significant differences”. The “cholesterol synthesis or absorption-related genes and their proteins in liver” value ([2]; sacrificed on day 7, 4B9 10 mg/kg i.p. every other day (FIGS. 4a, 4p-q)) was “without affecting the levels”, the “total cholesterol in serum” value ([2]; sacrificed on day 7, 4B9 10 mg/kg i.p. every other day, EZ 10 mg/kg per day intragastric (FIG. 4b)) was “effectively reduce” and the triglyceride in serum ([2]; sacrificed on day 7, 4B9 10 mg/kg i.p. every other day, EZ 10 mg/kg per day intragastric (FIG. 4c)) was “effectively reduce”. For the same molecule, the triglyceride in liver ([2]; sacrificed on day 7, 4B9 10 mg/kg i.p. every other day, EZ 10 mg/kg per day intragastric (FIG. 4e)) was “effectively reduce”, the “total amount of total cholesterol in bile” value ([2]; sacrificed on day 7, 4B9 10 mg/kg i.p. every other day, EZ 10 mg/kg per day intragastric (FIG. 4g)) was “increased” and the “total amount of total bile acid in bile” value ([2]; sacrificed on day 7, 4B9 10 mg/kg i.p. every other day, EZ 10 mg/kg per day intragastric (FIG. 4i)) was “increased”. The “total cholesterol in liver” value ([2]; sacrificed on day 7, 4B9 10 mg/kg i.p. every other day, EZ 10 mg/kg per day intragastric (FIG. 4d)) was “effectively reduce”, the “cholesterol efflux-related genes and their proteins (LXRs, ABCG8, ABCA1, CYP7A1) in liver” value [2, 7] was “increased levels” and the “lipid synthesis-related genes and their proteins (SREBP1, FASN) in liver” value [2, 7] was “inhibited the levels”. For the same molecule, the “cholesterol synthesis or absorption-related genes and their proteins in liver” value ([3]; 4B9 10 mg/kg/day i.p. every other day (FIGS. 3a, 3q-r)) was “without affecting the levels”, the “total cholesterol in serum” value ([3]; 4B9 10 mg/kg/day i.p. every other day, atorvastatin 30 mg/kg/day intragastric daily (FIG. 3b)) was “effectively reduce” and the triglyceride in serum ([3]; 4B9 10 mg/kg/day i.p. every other day, atorvastatin 30 mg/kg/day intragastric daily (FIG. 3c)) was “effectively reduce”. The triglyceride in liver ([3]; 4B9 10 mg/kg/day i.p. every other day, atorvastatin 30 mg/kg/day intragastric daily (FIG. 3e)) was “effectively reduce”, the “total amount of total cholesterol in bile” value ([3]; 4B9 10 mg/kg/day i.p. every other day, atorvastatin 30 mg/kg/day intragastric daily (FIG. 3g)) was “increased” and the “total amount of total bile acid in bile” value ([3]; 4B9 10 mg/kg/day i.p. every other day, atorvastatin 30 mg/kg/day intragastric daily (FIG. 3i)) was “increased”. The “total cholesterol in feces” value ([3]; 4B9 10 mg/kg/day i.p. every other day, atorvastatin 30 mg/kg/day intragastric daily (FIG. 3j)) was “significantly increased”, the “total cholesterol in liver” value ([3]; 4B9 10 mg/kg/day i.p. every other day, atorvastatin 30 mg/kg/day intragastric daily (FIG. 3d)) was “effectively reduce” and the “lipid synthesis-related genes and their proteins (SREBP1, FASN) in liver” value ([3]; 4B9 10 mg/kg/day i.p. every other day, atorvastatin 30 mg/kg/day intragastric daily (FIGS. 3a, 3q-r)) was “inhibited the levels”. For the same molecule, the “protein stability of LXRα” value (LXRα [4]) was “significantly increase”, the “protein stability of LXRα” value (LXRα [5]) was “significantly increase” and the “cholesterol efflux-related genes (target genes of LXR)” value (target genes of LXR) was “significantly up-regulated”.
